Data as given in patent publication US20120077731A1 (Ablynx, published 2012).
Changes are numbered by the printed parent chain. Values joined by “and” are separate entries in the source; they are usually repeats but may differ in a detail not shown here. Equal values may be shown once.

B1: IL6R13 (VHH)
VHH: EVQLVESGGGLVQPGGSLRLSCAASGFTFDDYGMSWVRQAPGRATEWVSAISWNGNNTYYTESMKGRFTISRDNAKNTVYLQMNSLKPEDTAVYYCVKGSTAIVGVPPTYPDEYDYWGQGTQVTVSS
notes: also called PMP35H4; not shown: C-terminal c-myc and (His)6 tags
B2: IL6R03 (VHH)
VHH: EVQLVESGGGLVQAGGSLRLSCAASGSIFKVNAMGWYRQAPGKQRELVAGIISGGSTNYADSVKGRLTISRDNAKNTVYLQMNSLKPEDTAVYYCSFVTTNSDYDLGRDYWGQGTQVTVSS
notes: also called PMP31A4; not shown: C-terminal c-myc and (His)6 tags
B3: IL6R61 (VHH)
VHH: B2 VHH with A14P, Q44G, K86R, Q116L
B4: IL6R62 (VHH)
VHH: B2 VHH with A14P, Q44G, L67F, K86R, Q116L
B5: IL6R63 (VHH)
VHH: B2 VHH with A14P, Q44G, V78L, K86R, Q116L
B6: IL6R64 (VHH)
VHH: B2 VHH with A14P, Q44G, K86R, S96A, Q116L
B7: PMP20E10 (VHH)
VHH: EVQLVESGGGLVQPGGSLRLSCAASGSVFKINVMAWYRQAPGKGRELVAGIVSGGSTSYADSVKGRFTISRDNAKNTLYLQMNSLRPEDTAVYYCAFITTESDYDLGRRYWGQGTLVTVSS
notes: not shown: c-myc and (His)6 tags
B8: PMP20F6 (VHH)
VHH: B7 VHH with E101N
notes: as for B7
B9: PMP21A10 (VHH)
VHH: B7 VHH with V28I, S53T
notes: as for B7
B10: PMP21D11 (VHH)
VHH: B7 VHH with S53T
notes: as for B7

Key:
[1] = target: T1, Human membrane IL-6R on cells (human, UniProt P08887 20-468); test: cell-based or functional assay
T1 sequence (looked up): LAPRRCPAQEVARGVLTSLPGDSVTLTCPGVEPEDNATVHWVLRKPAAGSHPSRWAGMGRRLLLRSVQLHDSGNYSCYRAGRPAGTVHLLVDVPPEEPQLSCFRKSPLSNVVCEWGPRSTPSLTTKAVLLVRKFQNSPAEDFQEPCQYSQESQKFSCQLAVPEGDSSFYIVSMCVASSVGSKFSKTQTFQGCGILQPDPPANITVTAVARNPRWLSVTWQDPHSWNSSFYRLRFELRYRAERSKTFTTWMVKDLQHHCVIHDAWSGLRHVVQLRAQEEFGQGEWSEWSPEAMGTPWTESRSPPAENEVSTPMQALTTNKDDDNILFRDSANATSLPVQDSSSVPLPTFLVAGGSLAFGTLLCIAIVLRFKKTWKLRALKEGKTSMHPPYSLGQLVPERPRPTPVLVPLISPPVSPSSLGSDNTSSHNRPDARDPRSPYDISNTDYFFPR

[2] = target: T1, Human membrane IL-6R on cells; test: cell-based or functional assay; remark: listed apart in the source
[3] = target: T1, Human membrane IL-6R on cells; test: cell-based or functional assay; remark: listed apart in the source
[4] = target: T1, Human membrane IL-6R on cells; test: cell-based or functional assay; remark: listed apart in the source
Human soluble IL-6R [5] = target: T2, Human soluble IL-6R (human, UniProt P08887 20-358); test: Biacore off-rate, periplasmic extract
T2 construct: Soluble recombinant form; biotinylated in some assays; also called hIL-6R; human IL-6R
T2 sequence (looked up): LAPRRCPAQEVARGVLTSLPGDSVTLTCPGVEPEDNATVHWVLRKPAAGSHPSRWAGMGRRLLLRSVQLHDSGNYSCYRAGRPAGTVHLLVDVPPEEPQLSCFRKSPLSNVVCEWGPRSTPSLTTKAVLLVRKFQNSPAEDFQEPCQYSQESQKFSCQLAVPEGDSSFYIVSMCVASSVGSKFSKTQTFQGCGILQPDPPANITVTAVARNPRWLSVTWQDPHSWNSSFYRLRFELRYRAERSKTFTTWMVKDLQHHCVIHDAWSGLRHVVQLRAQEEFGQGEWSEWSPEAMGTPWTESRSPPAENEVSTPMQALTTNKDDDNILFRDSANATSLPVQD

Human soluble IL-6R [6] = target: T2, Human soluble IL-6R; test: Biacore off-rate, periplasmic extracts
Human soluble IL-6R [7] = target: T2, Human soluble IL-6R; test: Biacore, binding to IL-6R (parent value)
Human soluble IL-6R [8] = target: T2, Human soluble IL-6R; test: SPR Biacore 3000, IL-6R amine-coupled to CM5
Protocol: (§1) Nanobodies were injected at 5 different concentrations between 1 and 50 nM. Flow rate was 45 μl/min in all experiments. Association and dissociation phase were 3 and 10 min, respectively. The chip was regenerated using Glycine/HCl pH 1.5.

Human soluble IL-6R [9] = target: T2, Human soluble IL-6R; test: Alphascreen, inhibition of bio-IL-6 binding to IL-6R
Protocol: (§2) Finally streptavidin donor beads were added and after 1 hour incubator the plate was read on the Envision microplate reader.

Human soluble IL-6R [10] = target: T2, Human soluble IL-6R; test: summary table C-13 of Nanobody characteristics, Kd on IL-6R
Protocol: as §1

Human soluble IL-6R [11] = target: T2, Human soluble IL-6R; test: inhibition of the IL-6/IL-6R interaction, summary table C-13
Protocol: as §2

Human soluble IL-6R [12] = target: T2, Human soluble IL-6R; test: competition for IL-6R, competitor reference Fab, summary table C-13
Human soluble IL-6R [13] = target: T2, Human soluble IL-6R; test: Alphascreen, 100 nM Nanobody, 0.4 nM bio-IL-6R; competitor: reference Fab
Mouse IL-6R = target: T3, Mouse IL-6R (mouse, UniProt P22272 20-364, limits assumed); test: ELISA: plate coated with 1 µg/ml mouse IL-6R, 500 nM Nanobody, anti-myc + anti-mouse-HRP
T3 construct: also called mouse sIL-6R
T3 sequence (looked up): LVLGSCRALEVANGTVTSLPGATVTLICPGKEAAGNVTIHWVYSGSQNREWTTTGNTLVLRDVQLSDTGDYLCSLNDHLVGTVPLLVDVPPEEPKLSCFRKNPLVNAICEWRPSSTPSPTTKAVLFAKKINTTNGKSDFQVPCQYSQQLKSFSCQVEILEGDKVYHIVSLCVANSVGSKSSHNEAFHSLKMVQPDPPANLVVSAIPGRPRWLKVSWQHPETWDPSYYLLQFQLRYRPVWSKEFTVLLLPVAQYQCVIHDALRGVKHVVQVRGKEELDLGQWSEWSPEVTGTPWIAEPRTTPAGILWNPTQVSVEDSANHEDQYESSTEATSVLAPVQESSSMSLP
Protocol: Detection was performed with anti-myc and anti-mouse-HRP as first and second antibody respectively.

Human soluble IL-6R [14] = target: T2, Human soluble IL-6R; test: Alphascreen IL-6/IL-6R competition with purified Nanobody; row EC50 of the table, axis [inhibitor], M; blocked ligand IL-6
Human soluble IL-6R [15] = target: T2, Human soluble IL-6R; test: Alphascreen IL-6/IL-6R competition (IL-6R 0.3 nM, bio-IL-6 3 nM); row EC50 of the fit table, axis [competitor], M; blocked ligand IL-6
Cyno IL-6R = target: T4, Cyno IL-6R (cynomolgus monkey, UniProt A0A2K5WN54 60-396); test: SPR Biacore 3000, cyno IL-6R amine-coupled to CM5
T4 construct: also called cynomolgus monkey IL-6R; recombinant cyno sIL-6R
T4 sequence: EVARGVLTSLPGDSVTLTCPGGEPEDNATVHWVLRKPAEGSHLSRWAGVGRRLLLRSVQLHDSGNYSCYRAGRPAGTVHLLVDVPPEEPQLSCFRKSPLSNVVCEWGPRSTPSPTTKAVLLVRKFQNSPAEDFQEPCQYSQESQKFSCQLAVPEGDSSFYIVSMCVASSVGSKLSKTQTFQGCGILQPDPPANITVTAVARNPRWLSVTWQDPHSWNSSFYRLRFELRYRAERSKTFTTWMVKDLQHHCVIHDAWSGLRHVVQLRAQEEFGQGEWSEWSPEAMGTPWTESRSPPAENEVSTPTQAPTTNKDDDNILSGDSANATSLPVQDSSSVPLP
Protocol: Remaining reactive groups were inactivated. […] Each sample was injected for 4 min at a flow rate of 45 μl/min to allow for binding to chip-bound antigen. Next, binding buffer without Nanobody was sent over the chip at the same flow rate to allow for dissociation of bound Nanobody.

Human soluble IL-6R [16] = target: T2, Human soluble IL-6R; test: Alphascreen IL-6/IL-6R competition (IL-6R 0.3 nM, bio-IL-6 3 nM); row EC50 of the fit table, axis [competitor], M; blocked ligand IL-6; remark: listed apart in the source
Human soluble IL-6R [17] = target: T2, Human soluble IL-6R; test: Biacore, binding to IL-6R
Human soluble IL-6R [18] = target: T2, Human soluble IL-6R; test: Alphascreen, inhibition of bio-IL-6 binding to IL-6R; remark: listed apart in the source
Protocol: Finally streptavidin donor beads were added and after 1 hour incubation the plate was read on the Envision microplate reader. Parental clones were included as reference.

Human soluble IL-6R [19] = target: T2, Human soluble IL-6R; test: Biacore T100
Human soluble IL-6R [20] = target: T2, Human soluble IL-6R; test: Biacore T100; value marked estimated
Human soluble IL-6R [21] = target: T2, Human soluble IL-6R; test: Biacore T100, IL-6R covalently coupled
Cyno plasma sIL-6R = target: T5, Cyno plasma sIL-6R (cynomolgus monkey, UniProt A0A2K5WN54 60-396); test: plasma potency assay, cyno plasma, 2.4 nM IL6; blocked ligand IL-6
T5 construct: also called cynomolgus sIL-6R
T5 sequence: T4 sequence
Protocol: (§3) All 5 affinity matured Nanobodies and the sequence optimized Nanobody were also tested in a plasma potency assay. […] TMB was used as substrate.

Human plasma sIL-6R [22] = target: T6, Human plasma sIL-6R (human, UniProt P08887 20-355, limits assumed); test: plasma potency assay, human plasma, 42 nM IL6; blocked ligand IL-6
T6 construct: also called plasma-derived human IL-6R
T6 sequence (looked up): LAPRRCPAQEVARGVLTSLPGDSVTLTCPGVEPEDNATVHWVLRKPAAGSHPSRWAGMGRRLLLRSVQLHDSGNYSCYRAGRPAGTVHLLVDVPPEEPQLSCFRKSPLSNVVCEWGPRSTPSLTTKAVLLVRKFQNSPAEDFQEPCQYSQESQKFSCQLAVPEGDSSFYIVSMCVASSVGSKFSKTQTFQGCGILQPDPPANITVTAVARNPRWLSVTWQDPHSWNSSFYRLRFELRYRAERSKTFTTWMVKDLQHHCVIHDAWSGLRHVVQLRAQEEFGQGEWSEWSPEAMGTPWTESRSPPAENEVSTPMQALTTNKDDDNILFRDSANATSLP
Protocol: as §3

Human plasma sIL-6R [23] = target: T6, Human plasma sIL-6R; test: plasma potency assay, human plasma, 2.4 nM IL6; blocked ligand IL-6
Protocol: as §3

| Binder | IC50 (Human soluble IL-6R [16]) [pM] | Kd (Human soluble IL-6R [17]) [pM] | koff (Human soluble IL-6R [17]) [s⁻¹] | kon (Human soluble IL-6R [17]) [M⁻¹ s⁻¹] | fold difference of IC50 to IL6R03 (Human soluble IL-6R [18]) [fold] | Kd (Human soluble IL-6R [19]) [pM] | kon (Human soluble IL-6R [20]) [M⁻¹ s⁻¹] | koff (Human soluble IL-6R [21]) [s⁻¹] | IC50 (Cyno plasma sIL-6R) [pM] | IC50 (read off the curve) (Human plasma sIL-6R [22]) [pM] | IC50 (Human plasma sIL-6R [23]) [pM] | also measured |
| --- | --- | --- | --- | --- | --- | --- | --- | --- | --- | --- | --- | --- |
| B1 |  |  |  |  |  |  |  |  |  |  |  | IC50 (nM) + HSA, XG-1 cell proliferation [1]: 1.3 nM; IC50 (nM), XG-1 cell proliferation [1]: 1.4 nM; IC50 (nM), TF1 cell proliferation [2]: 5.2 nM; IC50 (nM) XG-1 [3]: 1.4 nM; IC50 values (nM), XG-1 assay [4]: 1.4 nM; koff (Human soluble IL-6R [5]): 0.000178 s⁻¹; koff (Human soluble IL-6R [6]): 0.00021 s⁻¹; Kd (Human soluble IL-6R [7]): 700 pM; Kd (Human soluble IL-6R [8]): 500 pM and 800 pM; koff (Human soluble IL-6R [8]): 0.000121 s⁻¹ and 0.000109 s⁻¹ and 0.000178 s⁻¹; kon (Human soluble IL-6R [8]): 231000 M⁻¹ s⁻¹ and 137000 M⁻¹ s⁻¹; IC50 (Human soluble IL-6R [9]): 47.7 pM; Kd (Human soluble IL-6R [10]): 500 pM; IC50 (Human soluble IL-6R [11]): 50 pM; Ref Fab competition (%) (Human soluble IL-6R [12]): 25%; Residual reference-Fab binding to IL-6R (%) (Human soluble IL-6R [13]): 25%; binding result (Mouse IL-6R): no binding (tested: 500 nM); IC50 (Human soluble IL-6R [14]): 50.5 pM; IC50 (Human soluble IL-6R [15]): 64.4 pM |
| B2 | 187 |  |  |  |  |  |  |  |  |  |  | IC50 (nM) + HSA, XG-1 cell proliferation [1]: 17.5 nM; IC50 (nM), XG-1 cell proliferation [1]: 16.2 nM; IC50 (nM), TF1 cell proliferation [2]: 62.1 nM; IC50 (nM) XG-1 [3]: 16.2 nM; IC50 values (nM), XG-1 assay [4]: 17 nM; koff (Human soluble IL-6R [5]): 0.0016 s⁻¹; Kd (Human soluble IL-6R [7]): 3000 pM; Kd (Human soluble IL-6R [8]): 3000 pM; koff (Human soluble IL-6R [8]): 0.00147 s⁻¹ and 0.0016 s⁻¹; kon (Human soluble IL-6R [8]): 484000 M⁻¹ s⁻¹; Kd (Cyno IL-6R): 4400 pM; koff (Cyno IL-6R): 0.00164 s⁻¹; kon (Cyno IL-6R): 370000 M⁻¹ s⁻¹; IC50 (Human soluble IL-6R [9]): 716 pM; Kd (Human soluble IL-6R [10]): 3000 pM; IC50 (Human soluble IL-6R [11]): 720 pM; Ref Fab competition (%) (Human soluble IL-6R [12]): 5%; Residual reference-Fab binding to IL-6R (%) (Human soluble IL-6R [13]): 5%; binding result (Mouse IL-6R): no binding (tested: 500 nM); IC50 (Human soluble IL-6R [14]): 105 pM |
| B3 | 336 | 2000 | 0.0017 | 850000 | ≤ 2 |  |  |  |  |  |  |  |
| B4 | 280 | 2200 | 0.00207 | 929000 | ≤ 2 |  |  |  |  |  |  |  |
| B5 | 650 | 3700 | 0.00365 | 990000 | ~4 |  |  |  |  |  |  |  |
| B6 | 108 |  | 0.001 |  | ≤ 2 |  |  |  |  |  |  |  |
| B7 |  |  |  |  |  | 33 | ~1e+06 | 3.3e-05 | 100 | ~400 | 130 |  |
| B8 |  |  |  |  |  | 33 | ~1e+06 | 3.3e-05 | 70 | ~400 | 130 |  |
| B9 |  |  |  |  |  | 12 | ~1e+06 | 1.2e-05 | 80 | ~400 | 100 |  |
| B10 |  |  |  |  |  | 35 | ~1e+06 | 3.5e-05 |  | ~400 | 130 |  |
